Experimental data taken from patent US20110206633A1, “POLYMER CONJUGATES OF CD-NP PEPTIDES” (priority 2008, published 2011).
Entries after “also recorded” stand apart in the source; their conditions may differ.

Columns and labels:
[1] = Pharmacokinetic study, single IV dose in rats, plasma concentrations, noncompartmental analysis; conditions: for AUCINF / CL / Cmax / MRTlast / T½ / Vss: non-released PEG-BNP (or native BNP), equivalent protein mass 0.459 mg/kg IV, Sprague Dawley rats
Description: (§1) Thirty one (31) adult male Sprague-Dawley rats with indwelling jugular vein and carotid artery catheters (JVC/CAC) (Charles River Labs, Hollister, Calif.) were utilized for this study. […] All animals were food fasted overnight. Prior to dosing, the rats were weighed, the tails and cage cards were labeled for identification and the doses were calculated. Anesthesia was induced and maintained with 3.0-5.0% isoflurane. The JVC and CAC were externalized and flushed with HEP/saline (10 IU/mL HEP/mL saline). The predose sample was collected from the JVC and the catheters were plugged, and labeled to identify the jugular vein and carotid artery. When all of the animals had recovered from anesthesia and the predose samples were processed, the animals were dosed, intravenously (IV) via the JVC using a 1 mL syringe containing the appropriate test article and the dead volume of the catheter was flushed with 0.9% saline to ensure the animals received the correct dose.
(§2) Following a single IV dose, blood samples were collected from groups 1A, 2A, 3A and 4A, at 0 (pre-dose collected as described above), 0.03, 0.33, 2.0, 6.0, 12.0 and 72.0 hours and from Groups 1B, 2B, 3B and 4B at 0 (pre-dose collected as described above), 0.17, 1.0, 4.0, 8.0, 24.0 and 48.0 hours via the carotid artery catheter and processed as stated in the protocol. Following the last collection point, the animals were euthanized.
(§3) Concentrations in plasma that were below LLOQ were replaced with zeros prior to generating Tables and PK analysis. In the event that more than half (>50%) of the data points were below zero, mean concentration will not be shown in the figures or used in PK parameters estimation. The following PK parameters were estimated using plasma concentration-time profile of each animal:
(§4) C0 Extrapolated concentration to time “zero” Cmax Maximum (peak) concentration AUCall Area under the concentration-time from zero to time of last concentration value T1/2(Z) Terminal elimination half-life AUCinf Area under the concentration-time from zero to time infinity Tmax Time to reach maximum or peak concentration following administration CL Total body clearance Vz Volume of distribution based on terminal phase Vss Volume of distribution at steady state MRTlast Mean residence time to last observable concentration

[2] = rat, in vivo, iv
Description: as §1, §2, §3, §4

## ButyrALD-10K-BNP: non-releasable mPEG-Butyr-ALD-10K mono-PEG conjugate of BNP-32, N-terminus directed
[1]
  AUCINF: 96.6 ng·h/mL
  CL: 79.17 mL/min/kg
  Cmax: 355 ng/mL
  MRTlast: 0.368 h
  T½: 0.272 h
  Vss: 2.27 L/kg

## C2-FMOC-PEG2-40K-BNP: releasable mono-PEG conjugate of BNP-32 with mPEG2-C2-fmoc-NHS-40K; hydrolysis generates unmodified peptide
[2]; male, Sprague-Dawley
  peak concentration of conjugate in plasma: 1300 ng/mL
[2]
  time of peak concentration of released BNP: 0.3 h
  time plasma conjugate concentrations remained above 100 ng/mL: up to 24 h
  time released BNP stayed above 20 ng/mL: 8 h
[1]; intact C2-FMOC-PEG2-40K-BNP, IV bolus, rats
  half-life of conjugate in plasma: 15.0 h

## ButyrALD-40K-BNP: non-releasable 40 kDa mPEG2-Butyr-ALD mono-PEG conjugate of BNP-32, N-terminus directed
[2]
  peak plasma concentration compared with ButyrALD-10K-BNP: higher peak plasma concentration
[1]; IV, rats, in words
  clearance compared with ButyrALD-10K-BNP: lower clearance
  half-life compared with ButyrALD-10K-BNP: longer half-life
[1]
  AUCINF: 41300 ng·h/mL
  CL: 0.185 mL/min/kg
  Cmax: 1410 ng/mL
  MRTlast: 24.0 h
  T½: 26.1 h
  Vss: 0.631 L/kg

## CC[C@H](C)[C@@H]1NC(=O)[C@H](CCCNC(=N)N)NC(=O)[C@H](CC(=O)O)NC(=O)[C@H](CCSC)NC(=O)[C@H](CCCCN)NC(=O)[C@H](CCCNC(=N)N)NC(=O)CNC(=O)[C@H](Cc2ccccc2)NC(=O)[C@@H](NC(=O)CNC(=O)[C@H](CO)NC(=O)CNC(=O)[C@H](CCC(N)=O)NC(=O)[C@@H](NC(=O)[C@H](CCSC)NC(=O)[C@H](CCCCN)NC(=O)[C@@H]2CCCN2C(=O)[C@@H](N)CO)C(C)C)CSSC[C@@H](C(=O)N[C@@H](CCCCN)C(=O)N[C@H](C(=O)N[C@@H](CC(C)C)C(=O)N[C@@H](CCCN=C(N)N)C(=O)N[C@@H](CCCN=C(N)N)C(=O)N[C@@H](Cc2cnc[nH]2)C(=O)O)C(C)C)NC(=O)CNC(=O)[C@H](CC(C)C)NC(=O)CNC(=O)[C@H](CO)NC(=O)[C@H](CO)NC(=O)[C@H](CO)NC(=O)[C@H](CO)NC1=O [BNP, nesiritide, reference compound]
[1]; IV, rats, in words
  measurable BNP in plasma after BNP administration: No measurable plasma concentrations; also recorded: No BNP was measurable in plasma
